Biological target: T1, Aβ1-40 fibers (human)
T1 construct: Coated on Maxisorp plates for 3 days at 37 C to produce fibrillar Abeta; also called fibrillar Aβ; fibrillar Abeta
Test: ELISA on plate-coated fibrillar Aβ(1-40), detection with anti-human-IgG-HRP
Description: Binding of fusion polypeptide to fibrillar Aβ was measured by an ELISA assay. Briefly, […] was coated at 7 μg/mL in PBS onto Maxisorp plates for 3 days at 37° C. to produce fibrillar Abeta, then dried for 3 h at RT. The plate was blocked with 1% Crotein C and 0.1% RSA in PBS (blocking buffer) for 1 h at RT, then washed once with wash buffer. Fusion polypeptides or controls were added at concentrations up to 100 nM in blocking buffer and incubated at 4° C. overnight. After 4 wash steps, constructs were detected by addition of anti-human-IgG-HRP (Jackson Immunoresearch) at 1:10,000 dilution in blocking buffer […], followed by 6 washes and incubation in TMB (Sigma). Absorbance was read out at 450 nm after stopping color development with 1 N HCl (see FIG. 1).

binding result: binds
B1: Mab 31 = Gantenerumab (INN) (antibody, human IgG1, V domains shown)
VH: QVELVESGGGLVQPGGSLRLSCAASGFTFSSYAMSWVRQAPGKGLEWVSAINASGTRTYYADSVKGRFTISRDNSKNTLYLQMNSLRAEDTAVYYCARGKGNTHKPYGYVRYFDVWGQGTLVTVSS
VL: DIVLTQSPATLSLSPGERATLSCRASQSVSSSYLAWYQQKPGQAPRLLIYGASSRATGVPARFSGSGSGTDFTLTISSLEPEDFATYYCLQIYNMPITFGQGTKVEIKR
notes: Human IgG1 with kappa light chain; Id; No. 13; also called mAb31(HEK); naked anti-Aβ monoclonal antibody

Source: US20160168253A1 (Hoffmann-La Roche, published 2016)
